# Article PMC3082519, “Molecular Determinants and Genetic Modifiers of Aggregation and Toxicity for the ALS Disease Protein FUS/TLS”
# B1: FUS RNA probe (GU-repeat) (ssRNA)
# RNA: GGGGAAAAUUAAUGUGUGUGUGUGGAAAAUU
# Biological target: GST-FUS (Homo sapiens, UniProt P35637 1-526)
# Assay: EMSA; 0.15-5 uM GST-FUS; yeast tRNA 25 ng, heparin added after binding; 10 mM Tris pH 7.5, 75 mM KCl, 4 mM MgCl2, 25 mM phosphocreatine, 1.25 mM ATP, 1.3% polyvinyl alcohol, 25 ng yeast tRNA, 0.8 mg BSA, 1 mM DTT, RNasin, 0.1 mM EDTA, 10% glycerol; 10 ul, 20 min at 30 C; then heparin 0.5 ug/ml; 4.5% native gel
# Conditions: protein: recombinant; tags: N-terminal GST, TEV-cleavable (GST-TEV-FUS); label: 32P-UTP; single strand
# Chain of GST-FUS (P35637 whole entry): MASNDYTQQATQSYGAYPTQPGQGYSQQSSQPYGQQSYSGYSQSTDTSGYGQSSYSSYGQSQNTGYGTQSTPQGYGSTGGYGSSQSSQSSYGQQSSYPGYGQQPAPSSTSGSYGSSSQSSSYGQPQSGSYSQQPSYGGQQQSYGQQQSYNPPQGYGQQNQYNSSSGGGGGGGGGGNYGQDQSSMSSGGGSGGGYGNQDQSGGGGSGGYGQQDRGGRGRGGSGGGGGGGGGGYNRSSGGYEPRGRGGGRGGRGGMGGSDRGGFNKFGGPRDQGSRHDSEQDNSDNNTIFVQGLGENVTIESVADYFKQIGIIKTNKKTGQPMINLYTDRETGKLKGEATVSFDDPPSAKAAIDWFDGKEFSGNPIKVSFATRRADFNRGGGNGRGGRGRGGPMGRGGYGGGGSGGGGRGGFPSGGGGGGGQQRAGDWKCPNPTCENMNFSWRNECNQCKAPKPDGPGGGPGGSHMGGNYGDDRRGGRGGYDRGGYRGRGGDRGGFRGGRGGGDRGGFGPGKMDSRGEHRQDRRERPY
binder,measurement,value
B1,binding result,binds
